Source: the Human Domainome abundance scans (Beltran et al. 2025)
± gives the uncertainty stated by the source.

B1: Transcription elongation regulator 1-like protein, residues 448 to 504; numbered along this chain, Q5VWI1 (parent)
chain: LPLEERVTHFRDMLLERGVSAFSTWEKELHKIVFDPRYLLLNSEERKQIFEQFVKTR

Variants of: B1
Test: abundance fitness (aPCA) (normalised: wild type 0, dead -1); higher = more abundant; growth selection in yeast, the domain comes from the species named
Conditions: Homo sapiens

Which abundance fitness does the source give for LPLEFRVTHFRDMLLERGVSAFSTWEKELHKIVFDPRYLLLNSEERKQIFEQFVKTR [E5F] here?
Its abundance fitness is -0.481 ± 0.35.

With LPLEYRVTHFRDMLLERGVSAFSTWEKELHKIVFDPRYLLLNSEERKQIFEQFVKTR [E5Y] as the variant, how does the abundance fitness read?
The abundance fitness was -0.483 ± 0.24.

For LPLEMRVTHFRDMLLERGVSAFSTWEKELHKIVFDPRYLLLNSEERKQIFEQFVKTR [E5M], which abundance fitness is on record?
The abundance fitness was -0.254 ± 0.45.

Which abundance fitness does the source give for LPLESRVTHFRDMLLERGVSAFSTWEKELHKIVFDPRYLLLNSEERKQIFEQFVKTR [E5S] here?
The abundance fitness was -0.375 ± 0.19.

With LPLECRVTHFRDMLLERGVSAFSTWEKELHKIVFDPRYLLLNSEERKQIFEQFVKTR [E5C] as the variant, how does the abundance fitness read?
The abundance fitness was -0.303 ± 0.12.

With LPLEWRVTHFRDMLLERGVSAFSTWEKELHKIVFDPRYLLLNSEERKQIFEQFVKTR [E5W] as the variant, how does the abundance fitness read?
The abundance fitness was -0.715 ± 0.39.

Which abundance fitness does the source give for LPLETRVTHFRDMLLERGVSAFSTWEKELHKIVFDPRYLLLNSEERKQIFEQFVKTR [E5T] here?
Its abundance fitness is -0.553 ± 0.46.

Which abundance fitness does the source give for LPLEKRVTHFRDMLLERGVSAFSTWEKELHKIVFDPRYLLLNSEERKQIFEQFVKTR [E5K] here?
The abundance fitness was -0.535 ± 0.41.

Which abundance fitness does the source give for LPLEPRVTHFRDMLLERGVSAFSTWEKELHKIVFDPRYLLLNSEERKQIFEQFVKTR [E5P] here?
Its abundance fitness is -0.697 ± 0.19.

For LPLEVRVTHFRDMLLERGVSAFSTWEKELHKIVFDPRYLLLNSEERKQIFEQFVKTR [E5V], which abundance fitness is on record?
The abundance fitness was -0.416 ± 0.097.

With LPLEIRVTHFRDMLLERGVSAFSTWEKELHKIVFDPRYLLLNSEERKQIFEQFVKTR [E5I] as the variant, how does the abundance fitness read?
Its abundance fitness is -0.06 ± 0.16.

With LPLEARVTHFRDMLLERGVSAFSTWEKELHKIVFDPRYLLLNSEERKQIFEQFVKTR [E5A] as the variant, how does the abundance fitness read?
Its abundance fitness is -0.73 ± 0.24.

For LPLERRVTHFRDMLLERGVSAFSTWEKELHKIVFDPRYLLLNSEERKQIFEQFVKTR [E5R], which abundance fitness is on record?
The abundance fitness was -0.01 ± 0.17.

With LPLELRVTHFRDMLLERGVSAFSTWEKELHKIVFDPRYLLLNSEERKQIFEQFVKTR [E5L] as the variant, how does the abundance fitness read?
The abundance fitness was -0.565 ± 0.12.

Which abundance fitness does the source give for LPLEEEVTHFRDMLLERGVSAFSTWEKELHKIVFDPRYLLLNSEERKQIFEQFVKTR [R6E] here?
The abundance fitness was -1.01 ± 0.44.

With LPLEENVTHFRDMLLERGVSAFSTWEKELHKIVFDPRYLLLNSEERKQIFEQFVKTR [R6N] as the variant, how does the abundance fitness read?
Its abundance fitness is -0.485 ± 0.2.

Which abundance fitness does the source give for LPLEEAVTHFRDMLLERGVSAFSTWEKELHKIVFDPRYLLLNSEERKQIFEQFVKTR [R6A] here?
The abundance fitness was 0.062 ± 0.2.

For LPLEEQVTHFRDMLLERGVSAFSTWEKELHKIVFDPRYLLLNSEERKQIFEQFVKTR [R6Q], which abundance fitness is on record?
The abundance fitness was -0.744 ± 0.29.

Which abundance fitness does the source give for LPLEESVTHFRDMLLERGVSAFSTWEKELHKIVFDPRYLLLNSEERKQIFEQFVKTR [R6S] here?
The abundance fitness was -0.832 ± 0.34.

Which abundance fitness does the source give for LPLEETVTHFRDMLLERGVSAFSTWEKELHKIVFDPRYLLLNSEERKQIFEQFVKTR [R6T] here?
The abundance fitness was -0.772 ± 0.28.

Which abundance fitness does the source give for LPLEEGVTHFRDMLLERGVSAFSTWEKELHKIVFDPRYLLLNSEERKQIFEQFVKTR [R6G] here?
Its abundance fitness is -0.894 ± 0.23.

Which abundance fitness does the source give for LPLEEVVTHFRDMLLERGVSAFSTWEKELHKIVFDPRYLLLNSEERKQIFEQFVKTR [R6V] here?
Its abundance fitness is -0.701 ± 0.18.

With LPLEEMVTHFRDMLLERGVSAFSTWEKELHKIVFDPRYLLLNSEERKQIFEQFVKTR [R6M] as the variant, how does the abundance fitness read?
Its abundance fitness is -0.266 ± 0.47.

For LPLEEWVTHFRDMLLERGVSAFSTWEKELHKIVFDPRYLLLNSEERKQIFEQFVKTR [R6W], which abundance fitness is on record?
Its abundance fitness is -0.774 ± 0.38.

Which abundance fitness does the source give for LPLEEKVTHFRDMLLERGVSAFSTWEKELHKIVFDPRYLLLNSEERKQIFEQFVKTR [R6K] here?
Its abundance fitness is -0.485 ± 0.15.

For LPLEEFVTHFRDMLLERGVSAFSTWEKELHKIVFDPRYLLLNSEERKQIFEQFVKTR [R6F], which abundance fitness is on record?
Its abundance fitness is -0.292 ± 0.41.

For LPLEERVTHFADMLLERGVSAFSTWEKELHKIVFDPRYLLLNSEERKQIFEQFVKTR [R11A], which abundance fitness is on record?
Its abundance fitness is -0.544 ± 0.24.

Which abundance fitness does the source give for LPLEERVTHFCDMLLERGVSAFSTWEKELHKIVFDPRYLLLNSEERKQIFEQFVKTR [R11C] here?
Its abundance fitness is -0.5 ± 0.36.

Which abundance fitness does the source give for LPLEERVTHFEDMLLERGVSAFSTWEKELHKIVFDPRYLLLNSEERKQIFEQFVKTR [R11E] here?
Its abundance fitness is -0.437 ± 0.23.

For LPLEERVTHFDDMLLERGVSAFSTWEKELHKIVFDPRYLLLNSEERKQIFEQFVKTR [R11D], which abundance fitness is on record?
The abundance fitness was -0.909 ± 0.16.

With LPLEERVTDFRDMLLERGVSAFSTWEKELHKIVFDPRYLLLNSEERKQIFEQFVKTR [H9D] as the variant, how does the abundance fitness read?
The abundance fitness was -0.024 ± 0.43.

For LPLEERVTRFRDMLLERGVSAFSTWEKELHKIVFDPRYLLLNSEERKQIFEQFVKTR [H9R], which abundance fitness is on record?
Its abundance fitness is -0.202 ± 0.14.

For LPLEERVTYFRDMLLERGVSAFSTWEKELHKIVFDPRYLLLNSEERKQIFEQFVKTR [H9Y], which abundance fitness is on record?
Its abundance fitness is -0.236 ± 0.2.

Which abundance fitness does the source give for LPLEERVTKFRDMLLERGVSAFSTWEKELHKIVFDPRYLLLNSEERKQIFEQFVKTR [H9K] here?
The abundance fitness was 0.157 ± 0.089.

Which abundance fitness does the source give for LPLEERVTQFRDMLLERGVSAFSTWEKELHKIVFDPRYLLLNSEERKQIFEQFVKTR [H9Q] here?
Its abundance fitness is 0.232 ± 0.15.

With LPLEERVTTFRDMLLERGVSAFSTWEKELHKIVFDPRYLLLNSEERKQIFEQFVKTR [H9T] as the variant, how does the abundance fitness read?
The abundance fitness was -0.456 ± 0.15.

For LPLEERVTLFRDMLLERGVSAFSTWEKELHKIVFDPRYLLLNSEERKQIFEQFVKTR [H9L], which abundance fitness is on record?
Its abundance fitness is 0.279 ± 0.11.

Which abundance fitness does the source give for LPLEERVTFFRDMLLERGVSAFSTWEKELHKIVFDPRYLLLNSEERKQIFEQFVKTR [H9F] here?
The abundance fitness was -0.475 ± 0.48.

With LPLEERVTVFRDMLLERGVSAFSTWEKELHKIVFDPRYLLLNSEERKQIFEQFVKTR [H9V] as the variant, how does the abundance fitness read?
Its abundance fitness is -0.274 ± 0.19.

For LPLEERVTSFRDMLLERGVSAFSTWEKELHKIVFDPRYLLLNSEERKQIFEQFVKTR [H9S], which abundance fitness is on record?
The abundance fitness was -0.073 ± 0.12.

For LPLEERVTCFRDMLLERGVSAFSTWEKELHKIVFDPRYLLLNSEERKQIFEQFVKTR [H9C], which abundance fitness is on record?
The abundance fitness was -0.201 ± 0.079.

Which abundance fitness does the source give for LPLEERVTIFRDMLLERGVSAFSTWEKELHKIVFDPRYLLLNSEERKQIFEQFVKTR [H9I] here?
Its abundance fitness is 0.378 ± 0.39.

Which abundance fitness does the source give for LPLEERVTWFRDMLLERGVSAFSTWEKELHKIVFDPRYLLLNSEERKQIFEQFVKTR [H9W] here?
Its abundance fitness is -0.328 ± 0.31.

For LPLEERVTGFRDMLLERGVSAFSTWEKELHKIVFDPRYLLLNSEERKQIFEQFVKTR [H9G], which abundance fitness is on record?
The abundance fitness was -0.554 ± 0.23.

With LPLEERVTEFRDMLLERGVSAFSTWEKELHKIVFDPRYLLLNSEERKQIFEQFVKTR [H9E] as the variant, how does the abundance fitness read?
Its abundance fitness is -0.234 ± 0.35.

Which abundance fitness does the source give for LPLEERVTAFRDMLLERGVSAFSTWEKELHKIVFDPRYLLLNSEERKQIFEQFVKTR [H9A] here?
The abundance fitness was 0.001 ± 0.076.

For LPLEERVTMFRDMLLERGVSAFSTWEKELHKIVFDPRYLLLNSEERKQIFEQFVKTR [H9M], which abundance fitness is on record?
The abundance fitness was 0.266 ± 0.075.
